Measured values as given in the supplement of paper PMC10567573.
± gives the standard deviation.

Assay: protein stability index of a GFP-peptide fusion (GPS, HEK-293T) (PSI 1-6); higher = more stable
[1] = treatment: DMSO, c terminus: a fixed tail appended
[2] = treatment: MLN4924 1 uM, 8 h, c terminus: a fixed tail appended
[3] = treatment: DMSO, c terminus: native
[4] = treatment: MLN4924 1 uM, 8 h, c terminus: native
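Further: 24-mer peptide tiles fused after GFP, lentivirally expressed, FACS-sorted into six equal bins by GFP/DsRed ratio, decoded by Illumina sequencing, PSI is the read-weighted mean bin number.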

| Sequence | protein stability index [1] | protein stability index [2] | protein stability index [3] | protein stability index [4] |
| --- | --- | --- | --- | --- |
| GSNDRVQGVISQLEDTCKTIEECC [TRIM55] | 4.71 ± 0.098 | 4.77 ± 0.31 |  |  |
| GSNYANFELDLGKKVLNLLKGAFP [PTPN9] | 2.29 ± 0.42 | 2.12 ± 0.35 |  |  |
| GSRLCLYEDGTELTEDYFPSVPDN [DFFB] | 4.44 ± 0.44 | 4.66 ± 0.45 |  |  |
| GSVADTVARVLRGCLENMPEADCI [PLK2] | 2.88 ± 0.4 | 2.94 ± 0.33 |  |  |
| GTPMALIVISYIHVAAAVLRIRSV [OR3A1] | 3.16 ± 0.48 | 3.24 ± 0.074 |  |  |
| GTPTSHVYMFKNGSGDSGDSSEEE [LYSMD4] | 5.37 ± 0.4 | 5.39 ± 0.28 |  |  |
| GYDHLWDETLSSSHQKCPQLGGPE [PLEKHN1] | 4.19 ± 0.3 | 4.31 ± 0.32 |  |  |
| GYKSNQVRGLYDFYLPREELWIYN [KLHDC2] | 2.44 ± 0.16 | 1.98 ± 0.17 |  |  |
| GYPTYKEKVKKRPGGRPEVIYNYV [BTBD10] | 2.41 ± 0.16 | 2.85 ± 0.33 |  |  |
| GYREDNIPQLEDVSNFLKERTGFS [TPH1] | 3.75 ± 0.24 | 3.99 ± 0.42 |  |  |
| HARTHPQTALLESSCENKRADLVF [MATN2] | 4.09 ± 0.46 | 4.02 ± 0.19 |  |  |
| HDTEIRKVHMKDVMSALWVSGLDS [GAN] | 2.78 ± 0.29 | 2.75 ± 0.4 |  |  |
| HFSFNVKFYPPDPAQLSEDITRYY [EPB41L3] | 2.21 ± 0.24 | 2.12 ± 0.12 |  |  |
| HIDAIILALPEDLQGILLKTGMT [DENND6A] |  |  | 2.31 ± 0.59 | 2.59 ± 0.67 |
| HITARIESDLTLESLSDEEIHPG [DRICH1] |  |  | 4.47 ± 0.23 | 4.38 ± 0.37 |
| HLRTHTGERPYKCSECGESFSRSS [ZNF263] | 3.16 ± 0.19 | 3.38 ± 0.55 |  |  |
| HLSGSHNTLAPTCFKAKLHRKRGS [RSPH3] | 3.67 ± 0.14 | 3.77 ± 0.37 |  |  |
| HLSRLCVRHNLGDTRLGQVSALPL [SPSB2] | 2.38 ± 0.14 | 2.54 ± 0.33 |  |  |
| HLVIAEMMELGSRSRGASQKKQKL [FATE1] | 3.25 ± 0.14 | 3.34 ± 0.2 |  |  |
| HLYIYSIHSIPKGTEITIAFDFDY [KMT2E] | 3.39 ± 0.45 | 3.08 ± 0.33 |  |  |
| HNAVTSHQRPGWPGQPHSPFPHPT [NCF4] | 3.11 ± 0.17 | 3.67 ± 0.21 |  |  |
| HQLGFIHRDIKPDNLLLDAKGHVK [STK38L] | 3.71 ± 0.31 | 4.12 ± 0.26 |  |  |

| Sequence | protein stability index [1] | protein stability index [2] | protein stability index [3] | protein stability index [4] |
| --- | --- | --- | --- | --- |
| HQRFLREGRFWKSKNEDRGEEEAE [ZMYND11] | 4.94 ± 0.21 | 5.27 ± 0.2 |  |  |
| HRAHHKFSETHADPHNSRRGFFFS [SCD] | 3.08 ± 0.18 | 3.05 ± 0.3 |  |  |
| HRLRVQQAALRAARLRHQELFRLR [NOP53] | 2.88 ± 0.23 | 2.87 ± 0.4 |  |  |
| HRSYLGPGSTSPLETSGNPNGRYG [SLC6A17] | 4.27 ± 0.062 | 4.26 ± 0.29 |  |  |
| HSAAYRADPLRVSSRDKLTEMAAS [FUNDC2] | 3.92 ± 0.3 | 4.23 ± 0.22 |  |  |
| HSRFVELSEAYRVLSREQSRRSYD [DNAJC4] | 3.54 ± 0.23 | 3.7 ± 0.14 |  |  |
| HTTGPTGSAPNSPMALLTIGSSSE [TFE3] | 4.53 ± 0.12 | 4.54 ± 0.23 |  |  |
| HVQDPQNTVKVQVLYPDGQAQMIH [INTS4] | 3.74 ± 0.23 | 3.52 ± 0.29 |  |  |
| HVSPPPSADPARGLPRSRDCRVDL [PDLIM4] | 4.76 ± 0.14 | 4.73 ± 0.13 |  |  |
| HYKKAPIFTSEHGEKLYLVRALQ [NCK2] |  |  | 2.42 ± 0.61 | 2.2 ± 0.34 |
| ICAAAGRMGATMAAINSIYSNTDA [GLT8D2] | 2.26 ± 0.43 | 2.2 ± 0.34 |  |  |
| IDPRNGIPKLTPGDNPYMYPEQSK [SPATS1] | 4.58 ± 0.13 | 4.5 ± 0.18 |  |  |
| IDVSKREPPPVKQELPPYNGFGLV [EFHC1] | 3 ± 0.095 | 3.03 ± 0.27 |  |  |
| IELNGGQPPLTYKRFQTLISKMEP [CRY1] | 2.53 ± 0.3 | 2.51 ± 0.16 |  |  |
| IENIQRVAAGVLCELAQDKEAAEA [CTNNB1] | 5.08 ± 0.11 | 5.1 ± 0.48 |  |  |
| IHTGERPYKCPECGKSFSRSSHLV [ZNF263] | 2.66 ± 0.45 | 3.18 ± 0.55 |  |  |
| IIISEPMGYMLFNERMLESYLHAK [CARM1] | 2.66 ± 0.41 | 2.51 ± 0.35 |  |  |
| IIKMATARQETKEMARKVIEHCSN [ZER1] | 2.94 ± 0.35 | 3.08 ± 0.13 |  |  |
| IINAKSNDGWTPLHVAAHYGRDSF [ASB7] | 2.46 ± 0.24 | 2.41 ± 0.42 |  |  |
| IMDANQTYLVSERLEREERNQTQV [FAF2] | 4.16 ± 0.2 | 4.32 ± 0.1 |  |  |
| INCQLSDPSSTKPGTLLKTSPSPE [TRIM14] | 4.79 ± 0.3 | 4.88 ± 0.31 |  |  |
| INVPIRLECVKFASHCLMNHPDLA [PDS5B] | 2.28 ± 0.46 | 2.27 ± 0.17 |  |  |

| Sequence | protein stability index [1] | protein stability index [2] | protein stability index [3] | protein stability index [4] |
| --- | --- | --- | --- | --- |
| IPEKDMDERRRLLEQKTQESQKKK [ZNF207] | 5.51 ± 0.27 | 5.59 ± 0.11 |  |  |
| IPIFNETGRFSFTLPYPVKIKVRF [HACD3] | 2.92 ± 1.2 | 2.77 ± 0.44 |  |  |
| ISNIFSNYFSAMYSSEDSTLASVP [ELF3] | 2.2 ± 0.25 | 2.1 ± 0.18 |  |  |
| ISPSTLKNSLFPSPISSISPGLHS [KCNK9] | 2.71 ± 0.56 | 2.76 ± 0.56 |  |  |
| ITYQPAASTKMCEQALGKGCGADS [PLK2] | 4.06 ± 0.36 | 4.44 ± 0.24 |  |  |
| IVALYIASGLTGFIGLEVVAQLFN [ATL3] | 3.24 ± 0.094 | 3.31 ± 0.33 |  |  |
| IVGIVEKGNRTARIIDKPRVIEVL [SEPHS2] | 2.56 ± 0.29 | 2.27 ± 0.49 |  |  |
| IVGNQVQGAPASSFVYVNPEDGRI [PCDHGC5] | 3.46 ± 0.073 | 3.48 ± 0.21 |  |  |
| IVILENIAVAWIYGTKKFMQELTE [SLC6A17] | 3.05 ± 1 | 2.92 ± 0.2 |  |  |
| IVISYIHVAAAVLRIRSVEGRKKA [OR3A1] | 2.37 ± 0.6 | 2.05 ± 0.21 |  |  |
| KAEPRLPDRVYIHPDSPATGAHWM [TBX6] | 3.09 ± 0.12 | 3.23 ± 0.35 |  |  |
| KAFRSDSSFNFFVFFFIFFVQDVL [SCAMP3] | 3.36 ± 0.43 | 3.25 ± 0.17 |  |  |
| KAGLENSLAETECRYATQLQQIQG [KRT15] | 3.92 ± 0.049 | 4 ± 0.3 |  |  |
| KAHKYSELIILYEKKGLHEKALQV [VPS39] | 2.19 ± 0.43 | 2.18 ± 0.46 |  |  |
| KASWSSLSMDEKVELYRIKFKESF [COX4I1] | 2.55 ± 0.56 | 2.85 ± 0.44 |  |  |
| KATASEAVDCKWYIRAPPRSKIYL [NETO1] | 2.23 ± 0.54 | 2.25 ± 0.32 |  |  |
| KATMQNLNDRLASYLDKVRALEEA [KRT17] | 3.14 ± 0.19 | 3.43 ± 0.3 |  |  |
| KAVCGKCSSKRSSIPLMGFEFEVR [WDFY2] | 2.32 ± 0.12 | 2.71 ± 0.39 |  |  |
| KAVFGKHGPISEVLLIKDRTSKSR [RBMY1A1] | 3.04 ± 0.28 | 3.34 ± 0.22 |  |  |
| KDHECSECGKTFIYNSHLVVHQRV [ZNF232] | 2.56 ± 0.32 | 2.88 ± 0.41 |  |  |
| KDKRRIVSSSQDGKVIVWDSFTTN [GNB5] | 3.63 ± 0.049 | 3.8 ± 0.19 |  |  |
